This is an account of results in PMC8646660 (EMBO Molecular Medicine, 2021).

As usually defined, the Kd is the concentration at which binding is half-saturated. A high value points to a looser complex.

Experiment [1] addresses T1, SARS-CoV-2 S receptor-binding domain (RBD), biotinylated (SARS-CoV-2, UniProt P0DTC2, biotin on the Avi tag (enzymatic, BirA)).
T1 construct: also called wild-type RBD; WT
As to the kind of experiment: BLI. Particulars: both partners purified.

Experiment [2] deals with T1, SARS-CoV-2 S receptor-binding domain …. The experiment is described as follows: cell-based or functional assay.

B1: scFD20 (single-chain variable fragment of FD20) (scFv, V domains shown)
VH: QVQLQQSGAEVKKPGSSVKVSCKASGGTFSSYAFSWVRQAPGQGLEWMGRIIPILGIANYAQKFQGRVTITADISTSTAYMALSSLRSEDTAVYYCAKVEVNIGMDDYYYYYGMDVWGQGTTVTVSS
VL: not shown
notes: also called scFv of FD20; scFv FD20; source: E. coli MC1061, periplasmic release, purified (Ni-NTA)
In turn, B1 gave a Kd in experiment [1] of 5.6 nM. For the same molecule, in experiment [2], the “neutralisation of SARS-CoV-2 pseudovirus particles (pp), IC50” value came to 117 nM.

B2: FD20 (IgG format) (antibody, V domains shown)
VH: B1 VH
VL: not shown
Regarding B2, the “microneutralisation of authentic SARS-CoV-2 hCoV-19/China/CAS-B001/2020, IC50” value in experiment [2] came out at 5.2 nM.
